Source: PMC4503265 (The Journal of biological chemistry, 2008)

How the values were obtained:
[1] = biological target: the molecule itself; assay: cross-linking
[2] = biological target: the molecule itself; assay: SDS-resistant band in nonreducing SDS-PAGE with Western blot
[3] = biological target: the molecule itself; assay: cross-linking; remark: listed apart in the source
[4] = biological target: the molecule itself; assay: pull-down

Row | Protein | stoichiometry N [1] | also measured
1 | wild-type dopamine transporter (DAT^WT), no tag named (natural protein, human, UniProt Q01959 1-620, looked up) MSKSKCSVGLMSSVVAPAKEPNAVGPKEVELILVKEQNGVQLTSSTLTNPRQSPVEAQDRETWGKKIDFLLSVIGFAVDLANVWRFPYLCYKNGGGAFLVPYLLFMVIAGMPLFYMELALGQFNREGAAGVWKICPILKGVGFTVILISLYVGFFYNVIIAWALHYLFSSFTTELPWIHCNNSWNSPNCSDAHPGDSSGDSSGLNDTFGTTPAAEYFERGVLHLHQSHGIDDLGPPRWQLTACLVLVIVLLYFSLWKGVKTSGKVVWITATMPYVVLTALLLRGVTLPGAIDGIRAYLSVDFYRLCEASVWIDAATQVCFSLGVGFGVLIAFSSYNKFTNNCYRDAIVTTSINSLTSFSSGFVVFSFLGYMAQKHSVPIGDVAKDGPGLIFIIYPEAIATLPLSSAWAVVFFIMLLTLGIDSAMGGMESVITGLIDEFQLLHRHRELFTLFIVLATFLLSLFCVTNGGIYVFTLLDHFAAGTSILFGVLIEAIGVAWFYGVGQFSDDIQQMTGQRPSLYWRLCWKLVSPCFLLFVVVVSIVTFRPPHYGAYIFPDWANALGWVIATSSMAMVPIYAAYKFCSLPGSFREKLAYAIAPEKDRELVDRGEVRQFTLRHWLKV | 2 | 
2 | His-tagged wild-type dopamine transporter (His-DAT^WT) (natural protein, human, UniProt Q01959 1-620, looked up) MSKSKCSVGLMSSVVAPAKEPNAVGPKEVELILVKEQNGVQLTSSTLTNPRQSPVEAQDRETWGKKIDFLLSVIGFAVDLANVWRFPYLCYKNGGGAFLVPYLLFMVIAGMPLFYMELALGQFNREGAAGVWKICPILKGVGFTVILISLYVGFFYNVIIAWALHYLFSSFTTELPWIHCNNSWNSPNCSDAHPGDSSGDSSGLNDTFGTTPAAEYFERGVLHLHQSHGIDDLGPPRWQLTACLVLVIVLLYFSLWKGVKTSGKVVWITATMPYVVLTALLLRGVTLPGAIDGIRAYLSVDFYRLCEASVWIDAATQVCFSLGVGFGVLIAFSSYNKFTNNCYRDAIVTTSINSLTSFSSGFVVFSFLGYMAQKHSVPIGDVAKDGPGLIFIIYPEAIATLPLSSAWAVVFFIMLLTLGIDSAMGGMESVITGLIDEFQLLHRHRELFTLFIVLATFLLSLFCVTNGGIYVFTLLDHFAAGTSILFGVLIEAIGVAWFYGVGQFSDDIQQMTGQRPSLYWRLCWKLVSPCFLLFVVVVSIVTFRPPHYGAYIFPDWANALGWVIATSSMAMVPIYAAYKFCSLPGSFREKLAYAIAPEKDRELVDRGEVRQFTLRHWLKV | 2 | 
3 | Myc-tagged wild-type glycine transporter 2 (Myc-GlyT2^WT) (natural protein, mouse, UniProt Q761V0 1-799, looked up) MDCSAPKEMNKQPANILEAAVPGHRDSPRAPRTSPEQDLPAEAPAATVQPPRVPRSASTGAQTFQSADARACEAQQSGVGFCNLSSPRAQATSAALRDLSEGHSAQANPPSGPAGAGNALHCKIPALRGPEEDANVSVGKGTLEHNNTPAVGWVNMSQSTVVLGTDGIASVLPGSVATTTIPEDEQGDENKARGNWSSKLDFILSMVGYAVGLGNVWRFPYLAFQNGGGAFLIPYLMMLALAGLPIFFLEVSLGQFASQGPVSVWKAIPALQGCGIAMLIISVLIAIYYNVIICYTLFYLFASFVSVLPWGSCNNPWNTPECKDKTKLLLDSCVIGDHPKIQIKNSTFCMTAYPNLTMVNFTSQTNKTFVSGSEEYFKYFVLKISAGIEYPGEIRWPLAFCLFLAWVIVYASLAKGIKSSGKVVYFTATFPYVVLVILLIRGVTLPGAGAGIWYFITPKWEKLTDATVWKDAATQIFFSLSAAWGGLITLSSYNKFHNNCYRDTLIVTCTNSATSIFAGFVIFSVIGFMANERKVNIENVADQGPGIAFVVYPEALTRLPLSPFWAIIFFLMLLTLGLDTMFATIETIVTSISDEFPKYLRTHKPVFTLGCCICFFIMGFPMITQGGIYMFQLVDTYAASYALVIIAIFELVGISYVYGLQRFCEDIEMMIGFKPNIFWKVCWAFVTPTILTFILCFSFYQWEPMTYGSYRYPNWSMVLGWLMLACSVIWIPIMFVIKMYLAPGRFIERLKLVCSPQPDWGPFLAQHRGERYKNMIDPLGTSSLGLKLPVKDLELGTQC |  | stoichiometry N [2]: 2
4 | GlyT2^T464C (no tag named) (natural protein, mouse, UniProt Q761V0 1-799, looked up) MDCSAPKEMNKQPANILEAAVPGHRDSPRAPRTSPEQDLPAEAPAATVQPPRVPRSASTGAQTFQSADARACEAQQSGVGFCNLSSPRAQATSAALRDLSEGHSAQANPPSGPAGAGNALHCKIPALRGPEEDANVSVGKGTLEHNNTPAVGWVNMSQSTVVLGTDGIASVLPGSVATTTIPEDEQGDENKARGNWSSKLDFILSMVGYAVGLGNVWRFPYLAFQNGGGAFLIPYLMMLALAGLPIFFLEVSLGQFASQGPVSVWKAIPALQGCGIAMLIISVLIAIYYNVIICYTLFYLFASFVSVLPWGSCNNPWNTPECKDKTKLLLDSCVIGDHPKIQIKNSTFCMTAYPNLTMVNFTSQTNKTFVSGSEEYFKYFVLKISAGIEYPGEIRWPLAFCLFLAWVIVYASLAKGIKSSGKVVYFTATFPYVVLVILLIRGVTLPGAGAGIWYFITPKWEKLCDATVWKDAATQIFFSLSAAWGGLITLSSYNKFHNNCYRDTLIVTCTNSATSIFAGFVIFSVIGFMANERKVNIENVADQGPGIAFVVYPEALTRLPLSPFWAIIFFLMLLTLGLDTMFATIETIVTSISDEFPKYLRTHKPVFTLGCCICFFIMGFPMITQGGIYMFQLVDTYAASYALVIIAIFELVGISYVYGLQRFCEDIEMMIGFKPNIFWKVCWAFVTPTILTFILCFSFYQWEPMTYGSYRYPNWSMVLGWLMLACSVIWIPIMFVIKMYLAPGRFIERLKLVCSPQPDWGPFLAQHRGERYKNMIDPLGTSSLGLKLPVKDLELGTQC | 2 | 
5 | His-GlyT2^T464C expressed in Xenopus laevis oocytes (natural protein, mouse, UniProt Q761V0 1-799, looked up) MDCSAPKEMNKQPANILEAAVPGHRDSPRAPRTSPEQDLPAEAPAATVQPPRVPRSASTGAQTFQSADARACEAQQSGVGFCNLSSPRAQATSAALRDLSEGHSAQANPPSGPAGAGNALHCKIPALRGPEEDANVSVGKGTLEHNNTPAVGWVNMSQSTVVLGTDGIASVLPGSVATTTIPEDEQGDENKARGNWSSKLDFILSMVGYAVGLGNVWRFPYLAFQNGGGAFLIPYLMMLALAGLPIFFLEVSLGQFASQGPVSVWKAIPALQGCGIAMLIISVLIAIYYNVIICYTLFYLFASFVSVLPWGSCNNPWNTPECKDKTKLLLDSCVIGDHPKIQIKNSTFCMTAYPNLTMVNFTSQTNKTFVSGSEEYFKYFVLKISAGIEYPGEIRWPLAFCLFLAWVIVYASLAKGIKSSGKVVYFTATFPYVVLVILLIRGVTLPGAGAGIWYFITPKWEKLCDATVWKDAATQIFFSLSAAWGGLITLSSYNKFHNNCYRDTLIVTCTNSATSIFAGFVIFSVIGFMANERKVNIENVADQGPGIAFVVYPEALTRLPLSPFWAIIFFLMLLTLGLDTMFATIETIVTSISDEFPKYLRTHKPVFTLGCCICFFIMGFPMITQGGIYMFQLVDTYAASYALVIIAIFELVGISYVYGLQRFCEDIEMMIGFKPNIFWKVCWAFVTPTILTFILCFSFYQWEPMTYGSYRYPNWSMVLGWLMLACSVIWIPIMFVIKMYLAPGRFIERLKLVCSPQPDWGPFLAQHRGERYKNMIDPLGTSSLGLKLPVKDLELGTQC |  | stoichiometry N [3]: 2
6 | His- or Myc-tagged GlyT2^T464C (natural protein, mouse, UniProt Q761V0 1-799, looked up) MDCSAPKEMNKQPANILEAAVPGHRDSPRAPRTSPEQDLPAEAPAATVQPPRVPRSASTGAQTFQSADARACEAQQSGVGFCNLSSPRAQATSAALRDLSEGHSAQANPPSGPAGAGNALHCKIPALRGPEEDANVSVGKGTLEHNNTPAVGWVNMSQSTVVLGTDGIASVLPGSVATTTIPEDEQGDENKARGNWSSKLDFILSMVGYAVGLGNVWRFPYLAFQNGGGAFLIPYLMMLALAGLPIFFLEVSLGQFASQGPVSVWKAIPALQGCGIAMLIISVLIAIYYNVIICYTLFYLFASFVSVLPWGSCNNPWNTPECKDKTKLLLDSCVIGDHPKIQIKNSTFCMTAYPNLTMVNFTSQTNKTFVSGSEEYFKYFVLKISAGIEYPGEIRWPLAFCLFLAWVIVYASLAKGIKSSGKVVYFTATFPYVVLVILLIRGVTLPGAGAGIWYFITPKWEKLCDATVWKDAATQIFFSLSAAWGGLITLSSYNKFHNNCYRDTLIVTCTNSATSIFAGFVIFSVIGFMANERKVNIENVADQGPGIAFVVYPEALTRLPLSPFWAIIFFLMLLTLGLDTMFATIETIVTSISDEFPKYLRTHKPVFTLGCCICFFIMGFPMITQGGIYMFQLVDTYAASYALVIIAIFELVGISYVYGLQRFCEDIEMMIGFKPNIFWKVCWAFVTPTILTFILCFSFYQWEPMTYGSYRYPNWSMVLGWLMLACSVIWIPIMFVIKMYLAPGRFIERLKLVCSPQPDWGPFLAQHRGERYKNMIDPLGTSSLGLKLPVKDLELGTQC |  | stoichiometry N [4]: 2
